Source: patent US20240150489A1 (ICHNOS SCIENCES, published 2024)
Where a chain is given by its changes, count along the chain named.

T1: cynomolgus CD47-ECD-Avi-His (cynomolgus monkey)
T1 construct: also called recombinant cynomolgus monkey CD47-avi-his protein
T1 chain: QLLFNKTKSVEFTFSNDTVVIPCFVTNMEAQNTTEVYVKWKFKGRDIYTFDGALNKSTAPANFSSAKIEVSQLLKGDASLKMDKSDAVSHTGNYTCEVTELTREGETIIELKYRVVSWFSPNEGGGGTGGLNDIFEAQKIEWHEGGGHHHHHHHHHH

B1: anti-CD47-UCP01-A1 FAB (Fab, V domains shown)
VH: QVQLVQSGAEVKKPGSSVKVSCKASGGFFRLYAFSWVRQAPGQGLEWMGGIIPTDGFVGYAQKFQGRVTITADESTSTAYMELSSLRSEDTAVYYCARSRYYRPYGEYYVVGYGFAYWGQGTLVTVSS
VL: not shown
notes: human IgG1 Fab
B2: anti-CD38-420-E2-RecB FAB (Fab, V domains shown)
VH: QVQLVQSGAEVKKPGSSVKVSCKASGLPDATYAIGWVRQAPGQGLEWMGRIIPALAATHYAQKFQGRVTITADESTSTAYMELSSLRSEDTAVYYCARGLGYYLYSSYYFDIWGQGTLVTVSS
VL: not shown
notes: human IgG1 Fab
B3: anti-CD38-420-E2-RecC FAB (Fab, V domains shown)
VH: B2 VH with A54V, A56D, T58A
VL: not shown
notes: human IgG1 Fab
B4: anti-CD38-E2-UCP02-A5 FAB (Fab, V domains shown)
VH: B2 VH with L27G, P28S, D29F, A30S, T31N, A54D, A56G, T58A
VL: not shown
notes: human IgG1 Fab
B5: anti-CD38-E2-UCP02-D6 FAB (Fab, V domains shown)
VH: B2 VH with L27G, P28S, D29F, A30S, T31N, A54R, A56D, T58E
VL: not shown
notes: human IgG1 Fab
B6: anti-CD38-E2-UCP02-E7 FAB (Fab, V domains shown)
VH: B2 VH with L27G, P28S, D29F, A30S, T31N
VL: not shown
notes: human IgG1 Fab
B7: anti-CD38-E2-UCP02-F8 FAB (Fab, V domains shown)
VH: B2 VH with L27G, P28S, D29F, A30S, T31N, A54S, A56D, T58G
VL: not shown
notes: human IgG1 Fab; also called anti-CD38-E2-F8
B8: anti-CD38-E2-UCP02-G8 FAB (Fab, V domains shown)
VH: B2 VH with L27G, P28S, D29F, A30S, T31N, A56G, A57G, T58V
VL: not shown
notes: human IgG1 Fab
B9: anti-CD38-E2-UCP02-F3 FAB (Fab, V domains shown)
VH: B2 VH with L27G, P28S, D29F, A30S, T31N, A54V, A56D, T58A
VL: not shown
notes: human IgG1 Fab; also called anti-CD38-E2-F3
B10: anti-CD38-420-E2-RecA FAB (Fab, V domains shown)
VH: B2 VH with A54R, A56D, T58E
VL: not shown
notes: human IgG1 Fab; also called anti-CD38-E2-RecA
B11: anti-CD38-420-E2-RecD FAB (Fab, V domains shown)
VH: B2 VH with A56G, A57G, T58V
VL: not shown
notes: human IgG1 Fab
B12: anti-CD47-UCP01-A3 FAB (Fab, V domains shown)
VH: EVQLVESGGGLIQPGGSLRLSCAASGFTFTNSWMSWVRQAPGKGLEWVSVIYKYGFTEYADSVKGRFTISRDNSKNTLYLQMNSLRAEDTAVYYCARGSSIAAYAYAAPYRGGWMDVWGQGTLVTVSS
VL: not shown
notes: human IgG1 Fab
B13: anti-CD38-B6-MP01-D9 FAB (Fab, V domains shown)
VH: QVQLVQSGAEVKKPGSSVKVSCKASGGFFSHYIINWVRQAPGQGLEWMGRVIPVIDDAYYAQKFQGRVTITADESTSTAYMELSSLRSEDTAVYYCARSRGYYGSFYFDIWGQGTLVTVSS
VL: not shown
notes: human IgG1 Fab; also called anti-CD38-B6-D9
B14: anti-CD38-B6-MP01-A4 FAB (Fab, V domains shown)
VH: B13 VH with F28P, H31D, I33V
VL: not shown
notes: human IgG1 Fab
B15: anti-CD38-B6-MP01-B4 FAB (Fab, V domains shown)
VH: B13 VH with G27Y, F28E, S30N, H31T
VL: not shown
notes: human IgG1 Fab
B16: anti-CD38-B6-MP01-H3a FAB (Fab, V domains shown)
VH: B13 VH with F28P, S30N, H31A, Y32N, I34V, V37I
VL: not shown
notes: human IgG1 Fab
B17: anti-CD38-B6-MP01-H3b FAB (Fab, V domains shown)
VH: B13 VH with F28P, S30Q, H31S, Y32N, I34V, V37I
VL: not shown
notes: human IgG1 Fab
B18: anti-CD38-B6-MP02-B10 FAB (Fab, V domains shown)
VH: B13 VH with F28H, F29N, S30L, H31G, Y32K, A40P
VL: not shown
notes: human IgG1 Fab
B19: anti-CD38-B6-MP02-C1 FAB (Fab, V domains shown)
VH: B13 VH with F28H, F29Q, S30L, H31G, Y32K
VL: not shown
notes: human IgG1 Fab
B20: anti-CD38-B6-MP02-C2 FAB (Fab, V domains shown)
VH: B13 VH with F28H, F29G, S30Q, H31Q, Y32R
VL: not shown
notes: human IgG1 Fab
B21: anti-CD38-B6-MP02-G11 FAB (Fab, V domains shown)
VH: B13 VH with F28H, F29T, S30L, H31P, Y32P
VL: not shown
notes: human IgG1 Fab
B22: anti-CD47-UCP01-G2 FAB (Fab, V domains shown)
VH: EVQLVESGGGLIQPGGSLRLSCAASGFTVSNSYMTWVRQAPGKGLEWVSVIYKYGKTSYADSVKGRFTISRDNSKNTLYLQMNSLRAEDTAVYYCARGLTVSPYWGGAFDYWGQGTLVTVSS
VL: not shown
notes: human IgG1 Fab
B23: anti-CD47-UCP01-B3 FAB (Fab, V domains shown)
VH: EVQLVESGGGLIQPGGSLRLSCAASGFTFSNNYMSWVRQAPGKGLEWVSVIYKKGFTNYADSVKGRFTISRDNSKNTLYLQMNSLRAEDTAVYYCARGLSVDKYDGGPFDYWGQGTLVTVSS
VL: not shown
notes: human IgG1 Fab
B24: anti-CD47-UCP02-C1 FAB (Fab, V domains shown)
VH: QVQLVQSGAEVKKPGSSVKVSCKASGGFFSAHTISWVRQAPGQGLEWMGRITAVRGVPTYAQKFQGRVTITADESTSTAYMELSSLRSEDTAVYYCARASYGGPRYYWDGLDIWGQGTLVTVSS
VL: not shown
notes: human IgG1 Fab
B25: anti-CD47-UCP02-B3 FAB (Fab, V domains shown)
VH: QVQLVQSGAEVKKPGSSVKVSCKASGGRFRLYGINWVRQAPGQGLEWMGGISPIDGYAAYAQKFQGRVTITADESTSTAYMELSSLRSEDTAVYYCARSRRPYSASASYPGYGMDVWGQGTLVTVSS
VL: not shown
notes: human IgG1 Fab
B26: anti-CD47-UCP02-H3 FAB (Fab, V domains shown)
VH: B1 VH
VL: not shown
notes: human IgG1 Fab
B27: anti-CD47-UCP01-G1 FAB (Fab, V domains shown)
VH: EVQLLESGGGLVQPGGSLRLSCAASGFTFSNYAMAWVRQAPGKGLEWVSVISVEGGLTVYADSVKGRFTISRDNSKNTLYLQMNSLRAEDTAVYYCARGSRDSRGKYGAFDVWGQGTLVTVSS
VL: not shown
notes: human IgG1 Fab
B28: anti-CD47-UCP01-A2 FAB (Fab, V domains shown)
VH: EVQLLESGGGLVQPGGSLRLSCAASGFTFSRFAMGWVRQAPGKGLEWVSIISPNGHVTAYADSVKGRFTISRDNSKNTLYLQMNSLRAEDTAVYYCARDGLSVSSQGVAFDYWGQGTLVTVSS
VL: not shown
notes: human IgG1 Fab

What was measured:
human CD47-ECD-Avi-His = molecular target: T2, human CD47-ECD-Avi-His (human); assay: SPR, CD47 amine-coupled, Fab analyte, 1:1 fit
T2 construct: also called recombinant human CD47-avi-his protein; recombinant human CD47 protein
Experimental: (§1) Surface plasmon resonance (SPR) was used to measure the binding affinities of the Fab fragments for human and cynomolgus monkey CD47. Affinities were measured on a Biacore T200 instrument (Biacore, GE Healthcare) at 25° C. and analyzed with the Biacore T200 Evaluation Software (v3.1). […] Recombinant human CD47 protein and recombinant cynomolgus monkey CD47 protein were covalently immobilized to around 50 RU on flow-path 2 and flow-path 4 respectively of the Sensor Chip surface using a commercially available amine coupling kit (Biacore, GE Healthcare, catalog NO: BR100050). […] Dissociation was monitored for 5 min. After each cycle, the Series S CM5 Sensor Chip surface coated with recombinant CD47 proteins was regenerated with 30 μl of 10 mM Glycine pH 1.5 (Biacore, GE Healthcare, catalog NO: BR100354). Experimental data were processed using the 1:1 Langmuir kinetic fitting model. Measurements included zero-concentration samples for referencing. Chi², U- and residual values were used to evaluate the quality of a fit between the experimental data and individual binding models.

[1] = molecular target: T1, cynomolgus CD47-ECD-Avi-His; assay: SPR, CD47 amine-coupled, Fab analyte, 1:1 fit
Experimental: as §1

[2] = molecular target: T3, recombinant human CD38-ECD-C-his (human, UniProt P28907 43-300); assay: SPR, Fab captured as ligand, CD38 analyte
T3 construct: Extracellular region fused to 6-His, made in house; also called human CD38-C-His; recombinant human CD38 protein
Experimental: (§2) Affinities of the Fab to human and cynomolgus CD38 using the Fab as ligand were measured on a Biacore T200 instrument (Biacore, GE Healthcare) at 25° C. and analyzed with the BiacoreT200 Evaluation Software (v3.1). […] The affinities to human and cynomolgus monkey CD38 were assessed by immobilizing Fab fragments and using human or cynomolgus monkey CD38 protein as analyte. Around 50-200 RU of Fab was captured on flow-path 2 of a Series S CM5 Sensor Chip coupled with anti-human Fab antibodies. Human or cynomolgus monkey CD38 was injected in multi cycle kinetic at different concentrations ranging from 0.2 to 100 nM, in HBS-EP+ buffer (Biacore, GE Healthcare, catalog NO: BR100669) at a flow rate of 30 μl/min for 5 min on flow-path 1 and 2 (flow-path 1 being used as reference). Dissociation was monitored for 10 min. […] Experimental data were processed using the 1:1 Langmuir kinetic fitting model. Measurements included zero-concentration samples for referencing. Chi², U- and residual values were used to evaluate the quality of a fit between the experimental data and individual binding models.

[3] = molecular target: T4, recombinant cynomolgus monkey CD38-ECD-C-his (cynomolgus monkey, UniProt Q5VAN0 45-301); assay: SPR, Fab captured as ligand, cyno CD38 analyte
T4 construct: Extracellular region fused to 6-His; also called cyno CD38-C-His; recombinant cynomolgus monkey CD38 protein
Experimental: as §2

[4] = molecular target: T4, recombinant cynomolgus monkey …; assay: SPR, His-captured cyno CD38, Fab as analyte
[5] = molecular target: T5, recombinant biotinylated human CD38 Avitag, His Tag (Acrobiosystems, CD8-H82E7) (human, UniProt P28907 43-300, biotinylated (Avitag)); assay: SPR, biotinylated CD38 captured, Fab as analyte
T5 construct: Bought protein; also called biotinylated human CD38-avi-his protein; biotinylated recombinant human CD38 protein

| Binder | Kd (human CD47-ECD-Avi-His) [µM] | Kd [1] [µM] | Kd [2] [µM] | Kd [3] [µM] | Kd [4] [µM] | Kd [5] [µM] |
| --- | --- | --- | --- | --- | --- | --- |
| B1 | 0.292 | 0.0159 | – | – | – | – |
| B2 | – | – | 0.0016 | 0.0044 | – | – |
| B3 | – | – | 0.0013 | 0.0039 | – | – |
| B4 | – | – | 0.035 | – | 0.0044 | 0.0236 |
| B5 | – | – | 0.00535 | – | 0.0011 | 0.0049 |
| B6 | – | – | 0.00466 | – | 0.0018 | 0.0022 |
| B7 | – | – | 0.0162 | – | 0.0245 | 0.0176 |
| B8 | – | – | 0.0077 | – | 0.0042 | 0.0052 |
| B9 | – | – | 0.00613 | – | 0.0024 | 0.0035 |
| B10 | – | – | 0.0009 | 0.0037 | – | – |
| B11 | – | – | 0.0067 | 0.0221 | – | – |
| B12 | 1.17 | 1.26 | – | – | – | – |
| B13 | – | – | 0.0023 | 0.0052 | 0.00333 | 0.00055 |
| B14 | – | – | 0.227 | 0.828 | 0.229 | 0.0849 |
| B15 | – | – | 0.0516 | 0.167 | 0.0454 | 0.0119 |
| B16 | – | – | 0.0894 | 0.389 | 0.12 | 0.0283 |
| B17 | – | – | 0.171 | 0.33 | 0.13 | 0.0289 |
| B18 | – | – | 0.108 | 0.528 | 0.0812 | 0.0201 |
| B19 | – | – | 0.0977 | 0.333 | 0.0672 | 0.012 |
| B20 | – | – | 0.404 | 0.342 | – | 0.101 |
| B21 | – | – | 0.128 | 0.534 | 0.262 | 0.425 |
| B22 | 0.183 | 0.19 | – | – | – | – |
| B23 | 0.316 | 0.34 | – | – | – | – |
| B24 | 0.193 | 0.113 | – | – | – | – |
| B25 | 1.01 | 1.12 | – | – | – | – |
| B26 | 0.455 | 0.0178 | – | – | – | – |
| B27 | 0.136 | 0.214 | – | – | – | – |
| B28 | 0.822 | 1.07 | – | – | – | – |
